What was measured:
Experiment in all cases: cryo-EM structure
[1] = target: T1, N-terminally Flag-tagged MIOS (human, UniProt Q9NXC5 1-875)
T1 sequence: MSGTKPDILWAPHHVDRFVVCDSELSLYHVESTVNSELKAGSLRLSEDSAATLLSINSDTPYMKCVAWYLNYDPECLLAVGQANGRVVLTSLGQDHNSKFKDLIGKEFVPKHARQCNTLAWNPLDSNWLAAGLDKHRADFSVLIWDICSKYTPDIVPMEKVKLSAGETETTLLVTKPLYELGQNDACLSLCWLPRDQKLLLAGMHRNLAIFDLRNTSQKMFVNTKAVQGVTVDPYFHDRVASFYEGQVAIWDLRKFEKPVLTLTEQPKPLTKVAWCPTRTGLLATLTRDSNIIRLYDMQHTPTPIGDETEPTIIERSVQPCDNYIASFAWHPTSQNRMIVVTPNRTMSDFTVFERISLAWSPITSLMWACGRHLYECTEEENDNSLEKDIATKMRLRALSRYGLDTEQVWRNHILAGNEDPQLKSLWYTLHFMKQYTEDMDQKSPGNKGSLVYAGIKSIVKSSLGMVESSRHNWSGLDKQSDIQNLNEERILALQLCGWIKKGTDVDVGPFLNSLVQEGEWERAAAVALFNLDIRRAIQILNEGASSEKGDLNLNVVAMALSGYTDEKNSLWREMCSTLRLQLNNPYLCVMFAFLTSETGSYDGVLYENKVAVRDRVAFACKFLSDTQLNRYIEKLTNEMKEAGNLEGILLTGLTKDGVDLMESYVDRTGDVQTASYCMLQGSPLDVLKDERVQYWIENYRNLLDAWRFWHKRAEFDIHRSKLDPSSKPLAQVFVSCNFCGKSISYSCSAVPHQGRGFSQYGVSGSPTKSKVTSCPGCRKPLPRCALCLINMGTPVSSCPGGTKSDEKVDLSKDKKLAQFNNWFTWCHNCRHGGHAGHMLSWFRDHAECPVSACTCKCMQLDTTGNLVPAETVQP

tag-free WDR59 = target: T2, tag-free WDR59 (human, UniProt Q6PJI9 1-974)
T2 sequence: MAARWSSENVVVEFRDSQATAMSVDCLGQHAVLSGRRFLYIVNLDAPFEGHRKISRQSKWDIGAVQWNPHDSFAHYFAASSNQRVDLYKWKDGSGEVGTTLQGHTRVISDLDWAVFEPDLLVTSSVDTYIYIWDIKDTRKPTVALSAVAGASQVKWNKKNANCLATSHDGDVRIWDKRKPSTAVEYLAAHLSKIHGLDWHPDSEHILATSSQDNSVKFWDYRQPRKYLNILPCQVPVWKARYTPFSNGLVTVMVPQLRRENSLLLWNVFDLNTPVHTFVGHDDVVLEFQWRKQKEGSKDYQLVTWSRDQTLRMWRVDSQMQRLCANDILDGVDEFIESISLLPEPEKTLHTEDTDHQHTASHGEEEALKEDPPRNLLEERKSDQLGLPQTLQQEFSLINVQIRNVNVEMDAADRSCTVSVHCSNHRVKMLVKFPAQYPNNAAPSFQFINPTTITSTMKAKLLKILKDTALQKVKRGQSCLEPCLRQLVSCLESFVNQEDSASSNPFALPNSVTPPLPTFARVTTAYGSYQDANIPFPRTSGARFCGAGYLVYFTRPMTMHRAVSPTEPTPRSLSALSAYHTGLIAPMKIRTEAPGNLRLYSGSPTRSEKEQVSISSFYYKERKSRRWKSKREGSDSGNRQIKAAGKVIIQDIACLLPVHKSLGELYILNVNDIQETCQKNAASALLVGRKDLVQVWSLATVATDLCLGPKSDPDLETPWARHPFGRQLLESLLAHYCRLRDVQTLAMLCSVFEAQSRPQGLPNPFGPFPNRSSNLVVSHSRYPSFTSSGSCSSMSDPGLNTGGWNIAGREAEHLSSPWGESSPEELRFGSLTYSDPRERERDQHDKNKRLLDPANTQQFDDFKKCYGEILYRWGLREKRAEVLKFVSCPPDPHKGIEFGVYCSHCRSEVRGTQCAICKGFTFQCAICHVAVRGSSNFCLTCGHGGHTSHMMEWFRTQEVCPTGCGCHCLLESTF

tag-free WDR24 = target: T3, tag-free WDR24 (human, UniProt Q96S15 1-790)
T3 sequence: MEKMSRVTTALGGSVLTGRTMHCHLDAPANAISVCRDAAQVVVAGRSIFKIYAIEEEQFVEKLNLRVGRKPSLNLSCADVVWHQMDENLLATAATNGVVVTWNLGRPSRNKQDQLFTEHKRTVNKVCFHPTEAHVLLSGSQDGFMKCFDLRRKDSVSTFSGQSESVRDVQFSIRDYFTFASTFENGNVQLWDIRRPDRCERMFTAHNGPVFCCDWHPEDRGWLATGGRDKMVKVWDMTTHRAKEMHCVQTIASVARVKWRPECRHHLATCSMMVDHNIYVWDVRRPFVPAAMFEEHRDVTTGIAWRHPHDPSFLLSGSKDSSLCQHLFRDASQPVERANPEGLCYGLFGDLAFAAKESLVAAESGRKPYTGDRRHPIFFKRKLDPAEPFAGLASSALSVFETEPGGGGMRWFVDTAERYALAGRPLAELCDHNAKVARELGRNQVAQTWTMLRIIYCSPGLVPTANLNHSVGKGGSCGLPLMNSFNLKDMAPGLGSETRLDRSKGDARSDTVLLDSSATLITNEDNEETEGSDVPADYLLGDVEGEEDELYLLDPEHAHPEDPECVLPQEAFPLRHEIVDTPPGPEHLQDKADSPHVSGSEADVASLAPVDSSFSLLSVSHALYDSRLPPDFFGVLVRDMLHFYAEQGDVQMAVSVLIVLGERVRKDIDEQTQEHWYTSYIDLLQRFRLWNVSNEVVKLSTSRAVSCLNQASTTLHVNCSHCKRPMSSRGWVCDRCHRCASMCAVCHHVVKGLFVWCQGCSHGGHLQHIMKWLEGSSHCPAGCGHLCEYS

- binding result [1]: binds
- binding result (tag-free WDR59): binds
- binding result (tag-free WDR24): binds
B1: tag-free SEC13 (natural protein, human)
chain: MVSVINTVDTSHEDMIHDAQMDYYGTRLATCSSDRSVKIFDVRNGGQILIADLRGHEGPVWQVAWAHPMYGNILASCSYDRKVIIWREENGTWEKSHEHAGHDSSVNSVCWAPHDYGLILACGSSDGAISLLTYTGEGQWEVKKINNAHTIGCNAVSWAPAVVPGSLIDHPSGQKPNYIKRFASGGCDNLIKLWKEEEDGQWKEEQKLEAHSDWVRDVAWAPSIGLPTSTIASCSQDGRVFIWTCDDASSNTWSPKLLHKFNDVVWHVSWSITANILAVSGGDNKVTLWKESVDGQWVCISDVNKGQGSVSASVTEGQQNEQ
